Assay results: US20250388684A1 (SICHUAN SWIFTBIO BIOTECHNOLOGY, published 2025)
Numbering of substitutions follows the chain as printed. Where two headings read alike, the source gives them in different places.

T1: human CCR4 (human, UniProt P51679 1-360)
T1 construct: whole, on cells; also called h.CCR4; HEK293T-h.CCR4
T1 sequence (looked up): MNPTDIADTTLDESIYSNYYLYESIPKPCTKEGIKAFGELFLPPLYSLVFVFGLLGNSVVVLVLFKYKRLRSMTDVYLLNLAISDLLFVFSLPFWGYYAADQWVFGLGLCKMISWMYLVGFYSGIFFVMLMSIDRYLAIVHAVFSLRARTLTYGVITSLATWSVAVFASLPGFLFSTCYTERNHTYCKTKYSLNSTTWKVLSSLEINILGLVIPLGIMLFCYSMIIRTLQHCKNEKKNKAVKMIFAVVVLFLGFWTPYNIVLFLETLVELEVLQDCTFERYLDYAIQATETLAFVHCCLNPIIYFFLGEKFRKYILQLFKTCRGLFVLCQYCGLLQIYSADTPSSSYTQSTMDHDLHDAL

B1: 13F3H6 (anti-human CCR8 mouse monoclonal antibody) (antibody, V domains shown)
VH: EVQLVESGGGLVRPKGSLKFSCAASGFTFNAYAMNWVRQAPGKGLEWVARIRTKSNNYATYYADSVKDRFTISRDDSENMLYLQMNNLKTEDTAIYYCVRHKKVREGYAMDYWGQGTSVTVSS
VL: DIVLTQSPASLVLSLGQRATISCRASKSVSTSGYTYMHWYQQKPGQPPKLLIYLASNLESGVPARFSGSGSGTDFTLNIHPVEEEDAATYYCQHSRELPFTFGSGTKLEIK
notes: Mouse antibody purified from hybridoma supernatant
B2: 96F1C4 (anti-human CCR8 mouse monoclonal antibody) (antibody, V domains shown)
VH: QVQLQQSGAELVRPGASVTLSCKASGYTFTDYEMHWVKQTPVHGLEWIGAFDPKTGGTAYNQKFKGKAILTADKSSSTAYMELRSLTSEDSAVYYCARRRFFDVWGAGTTVTVSS
VL: DAVMTQTPLSLPVSLGDQASISCRSSQSLEHSNGNTYLHWYLQKPGQSPQLLIYRVSNRFSGVLDRFSGSGSGTDFTLKISRVEAEDLGVYFCLQVTHVPFTFGTGTKLEIK
notes: as for B1
B3: 96F1C4-hz (humanized anti-human CCR8 monoclonal antibody, human IgG1) (antibody, V domains shown)
VH: QVQLVESGAEVKKPGSSVKVSCKASGYTFTDYEMHWVRQAPGQGLEWMGAFDPKTGGTAYAQKFQGRVTLTADKSTSTAYMELSSLRSEDTAVYYCARRRFFDVWGQGTLVTVSS
VL: DAVMTQTPLSLSVTPGQPASISCRSSQSLEHSNGNTYLHWYLQKPGQSPQLLIYRVSNRFSGVPDRFSGSGSGTDFTLKISRVEAEDVGVYYCLQVTHVPFTFGQGTKVEIKR
notes: Built in the pTT5-h.IgG1 vector
B4: 76H1F11-hz (humanized anti-human CCR8 monoclonal antibody, human IgG1) (antibody, V domains shown)
VH: B3 VH with M34I, F51I, D52K, K54E, A72S, A97T, F101Y
VL: B3 VL with N33D, N35I
B5: 13F3H6-hz-eADCC (13F3H6-hz with ADCC-enhanced IgG1 Fc) (antibody)
heavy: EVQLVESGGGLVQPGESLRLSCAASGFTFNAYAMNWVRQAPGQGLEWVARIRTKSNNYATYYADSVKGRFTISRDDSKNTLYLEMNSLRAEDTAVYYCVRHKKVREGYAMDYWGQGTLVTVSSASTKGPSVFPLAPSSKSTSGGTAALGCLVKDYFPEPVTVSWNSGALTSGVHTFPAVLQSSGLYSLSSVVTVPSSSLGTQTYICNVNHKPSNTKVDKKVEPKSCDKTHTCPPCPAPELVGGPSVFLLPPKPKDTLMISRTPEVTCVVVDVSHEDPEVKFNWYVDGVEVHNAKTKPPEEQYNSTLRVVSVLTVLHQDWLNGKEYKCKVSNKALPAPIEKTISKAKGQPREPQVYTLPPSREEMTKNQVSLTCLVKGFYPSDIAVEWESNGQPENNYKTTPLVLDSDGSFFLYSKLTVDKSRWQQGNVFSCSVMHEALHNHYTQKSLSLSPGK
light: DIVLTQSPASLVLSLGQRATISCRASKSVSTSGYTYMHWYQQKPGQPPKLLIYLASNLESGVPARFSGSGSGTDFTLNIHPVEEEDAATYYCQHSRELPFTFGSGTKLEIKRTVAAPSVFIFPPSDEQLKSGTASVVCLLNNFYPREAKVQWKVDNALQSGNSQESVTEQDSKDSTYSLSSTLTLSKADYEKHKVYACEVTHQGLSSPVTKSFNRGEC
notes: also called 13F3H6-eADCC

How the values were obtained:
human CCR4 [1] = target: T1, human CCR4; assay: FACS on HEK293T-h.CCR4 cells
Experimental: Evaluate the specificity of anti-human CCR8 mouse monoclonal antibodies using FACS. The experimental steps are as follows: digest HEK293T-h.CCR4 cells, centrifuge to collect the cells, and wash three times with pre-cooled PBS. Resuspend the cells in 1% BSA (in PBS), adding 3×10\hat{ }5 cells in a volume of 50 μL to each well of a 96-well V-bottom plate. Dilute the antibody to be tested in 1% BSA (in PBS) to 20 μg/mL, take 50 μL per well, and add it to the cells, resulting in a final antibody concentration of 10 μg/mL. Mix and incubate at 4° C. for 1 hour. Centrifuge to collect the cells and wash three times with pre-cooled PBS. Resuspend the cells in 50 μL of 1% BSA (in PBS), add 1 μL of fluorescent secondary antibody to each well, mix, and incubate at 4° C. for 0.5 hours. Centrifuge to collect the cells, wash three times with pre-cooled PBS, resuspend the cells in 200 μL of PBS, and analyze them.

cynomolgus monkey CCR8 [2] = target: T2, cynomolgus monkey CCR8 (cynomolgus monkey, UniProt G7NYJ2 1-355); assay: FACS on HEK293T-c.CCR8 cells, mouse antibody
T2 construct: whole, on cells; also called c.CCR8; HEK293T-c.CCR8

[3] = target: T3, human CCR8 (C-C chemokine receptor type 8) (human, UniProt P51685 1-355); assay: FACS on HEK293T-h.CCR8 cells, mouse antibody
T3 construct: whole, on cells; also called h.CCR8; HEK293T-h.CCR8

[4] = target: T3, human CCR8 (C-C chemokine receptor type …); assay: cell-based or functional assay
cynomolgus monkey CCR8 [5] = target: T2, cynomolgus monkey CCR8; assay: FACS on HEK293T-c.CCR8 cells
human CCR4 [6] = target: T1, human CCR4; assay: FACS on HEK293T-h.CCR4 cells; remark: listed apart in the source
Experimental: The specificity of humanized monoclonal antibodies against human CCR4 was assessed using FACS. HEK293T-h.CCR4 cells were collected, washed, and resuspended in 1% BSA (in PBS). Each well of a 96-well V-bottom plate received 3×10\hat{ }5 cells, followed by the addition of the test antibodies at a final concentration of 20 μg/mL and incubation at 4° C. for one hour. After washing, 1 μL of fluorescent secondary antibody (Biolegend, Catalog No.: 410708) was added, and the mixture was incubated. The cells were washed and resuspended for detection using a flow cytometer (Beckman, Model: CytoFLEX).

[7] = target: T3, human CCR8 (C-C chemokine receptor type …); assay: FACS on HEK293T-h.CCR8 cells, test 1
Experimental: (§1) The affinity of humanized monoclonal antibodies against human CCR8 was assessed using FACS. The experimental procedure was as follows: HEK293T-h.CCR8 cells were digested and collected by centrifugation, followed by three washes with pre-cooled PBS. The cells were resuspended in 1% BSA (in PBS), with 3×10\hat{ }5 cells added to each well of a 96-well V-bottom plate (50 μL per well). Prepare the antibody dilution series in 1% BSA (in PBS), starting from 40 μg/mL. Perform a 3-fold serial dilution across 10 concentration points. Add 50 μL per well to the cells, so that the final antibody concentration in the wells starts from 20 μg/mL. Mix thoroughly and incubate at 4° C. for 1 hour. The cells were collected by centrifugation, washed three times with pre-cooled PBS, resuspended in 50 μL 1% BSA (in PBS), and 1 μL of fluorescent secondary antibody (Biolegend, Catalog No.: 410708) was added to each well. The mixture was incubated at 4° C. for 30 minutes, followed by three washes with pre-cooled PBS. The cells were then resuspended in 200 μL PBS for detection.

[8] = target: T3, human CCR8 (C-C chemokine receptor type …); assay: FACS on HEK293T-h.CCR8 cells, test 2 (anti-human Alexa Fluor 647 secondary antibody)
Experimental: as §1

T2 sequence (G7NYJ2 entry or part of it): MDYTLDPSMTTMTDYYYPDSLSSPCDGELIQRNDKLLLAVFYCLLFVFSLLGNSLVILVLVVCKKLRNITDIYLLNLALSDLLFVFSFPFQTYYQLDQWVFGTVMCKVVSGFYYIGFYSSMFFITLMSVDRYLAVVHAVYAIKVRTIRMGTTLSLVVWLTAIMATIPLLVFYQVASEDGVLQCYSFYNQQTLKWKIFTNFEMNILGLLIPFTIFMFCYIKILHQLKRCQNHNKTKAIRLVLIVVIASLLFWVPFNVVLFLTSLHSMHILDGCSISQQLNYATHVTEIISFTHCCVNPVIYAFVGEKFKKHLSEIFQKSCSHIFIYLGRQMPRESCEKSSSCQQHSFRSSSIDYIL
T3 sequence (P51685 whole entry): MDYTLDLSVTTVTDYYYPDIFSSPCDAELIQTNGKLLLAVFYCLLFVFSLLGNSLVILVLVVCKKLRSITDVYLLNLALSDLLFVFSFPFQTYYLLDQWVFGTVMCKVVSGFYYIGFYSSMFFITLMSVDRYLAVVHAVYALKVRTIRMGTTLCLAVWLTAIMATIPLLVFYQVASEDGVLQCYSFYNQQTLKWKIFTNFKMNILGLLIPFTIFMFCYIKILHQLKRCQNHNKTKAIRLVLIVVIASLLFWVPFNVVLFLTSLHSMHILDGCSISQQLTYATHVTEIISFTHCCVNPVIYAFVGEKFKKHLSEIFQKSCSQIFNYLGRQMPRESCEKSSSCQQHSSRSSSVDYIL

Row | Binder | binding result (human CCR4 [1]) | EC50 (cynomolgus monkey CCR8 [2]) [mg/L] | EC50 [3] [nM] | ADCC activity EC50 [4] [mg/L] | ADCP activity EC50 [4] [mg/L] | Inhibition rate of CCL1-mediated cell migration (%) at 50 µg/mL, BaF3-h.CCR8 cells, Transwell [4] [%] | binding result (cynomolgus monkey CCR8 [5]) | binding result (human CCR4 [6]) | EC50 [7] [mg/L] | EC50 [8] [mg/L]
1 | B1 | no binding (tested: 10 µg/mL) | 0.288 | 0.37 |  |  |  |  |  |  | 
2 | B2 | no binding (tested: 10 µg/mL) |  | 0.16 |  |  |  |  |  |  | 
3 | B3 |  |  |  | 0.0052 | 0.107 | 60.1 | no binding | no binding (tested: 20 µg/mL) | 0.0796 | 
4 | B4 |  |  |  | 0.0148 |  |  | no binding | no binding (tested: 20 µg/mL) | 0.322 | 
5 | B5 |  |  |  | 0.00117 | 0.0647 | 73.5 |  |  |  | 0.0244
